Measured values from patent publication US20190270826A1 (Janssen / Centocor, published 2019).

T1: recombinant human IL1RAP ECD (human, UniProt Q9NPH3 21-367)
T1 construct: His-tagged; also called hIL1RAP-ECD; rhuIL1RAP
T1 sequence: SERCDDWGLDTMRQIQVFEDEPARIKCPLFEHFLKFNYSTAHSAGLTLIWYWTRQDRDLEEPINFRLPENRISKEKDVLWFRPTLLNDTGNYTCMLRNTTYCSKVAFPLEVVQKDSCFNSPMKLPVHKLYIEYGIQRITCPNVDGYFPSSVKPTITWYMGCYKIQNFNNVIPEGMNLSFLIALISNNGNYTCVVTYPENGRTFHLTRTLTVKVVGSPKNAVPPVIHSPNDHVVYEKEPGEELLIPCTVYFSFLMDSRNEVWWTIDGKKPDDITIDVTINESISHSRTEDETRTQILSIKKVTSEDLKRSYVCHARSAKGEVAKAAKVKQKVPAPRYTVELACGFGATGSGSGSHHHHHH

T2: recombinant cyno IL1RAP ECD (cynomolgus monkey, UniProt P59822 21-367 (rhesus entry))
T2 construct: also called rcynoIL1RAP
T2 sequence: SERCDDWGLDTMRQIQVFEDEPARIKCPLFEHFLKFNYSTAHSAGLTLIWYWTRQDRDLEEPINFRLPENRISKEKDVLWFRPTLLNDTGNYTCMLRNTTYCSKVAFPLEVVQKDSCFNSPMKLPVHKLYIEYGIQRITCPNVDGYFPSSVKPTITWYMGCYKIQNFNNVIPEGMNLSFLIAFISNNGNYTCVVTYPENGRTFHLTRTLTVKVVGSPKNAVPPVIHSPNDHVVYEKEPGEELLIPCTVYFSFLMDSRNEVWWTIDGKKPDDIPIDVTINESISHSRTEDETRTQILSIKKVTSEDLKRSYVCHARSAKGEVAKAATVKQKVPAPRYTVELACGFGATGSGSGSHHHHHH

T3: cyno IL1RAP ECD displayed on HEK-293F cells (pDisplay) (cynomolgus monkey, UniProt P59822 21-367 (rhesus entry))
T3 sequence: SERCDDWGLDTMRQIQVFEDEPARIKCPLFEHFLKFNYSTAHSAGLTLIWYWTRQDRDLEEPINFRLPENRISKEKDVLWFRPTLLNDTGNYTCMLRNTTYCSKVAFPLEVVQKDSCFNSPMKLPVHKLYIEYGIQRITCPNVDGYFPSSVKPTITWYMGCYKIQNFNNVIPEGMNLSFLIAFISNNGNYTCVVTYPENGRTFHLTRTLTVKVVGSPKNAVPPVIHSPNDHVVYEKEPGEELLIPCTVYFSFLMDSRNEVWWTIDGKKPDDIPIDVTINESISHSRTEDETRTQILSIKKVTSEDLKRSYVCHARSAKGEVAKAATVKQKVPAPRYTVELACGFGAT

T4: human IL1RAP on cells (endogenous) (human, UniProt Q9NPH3 21-570)
T4 sequence (looked up): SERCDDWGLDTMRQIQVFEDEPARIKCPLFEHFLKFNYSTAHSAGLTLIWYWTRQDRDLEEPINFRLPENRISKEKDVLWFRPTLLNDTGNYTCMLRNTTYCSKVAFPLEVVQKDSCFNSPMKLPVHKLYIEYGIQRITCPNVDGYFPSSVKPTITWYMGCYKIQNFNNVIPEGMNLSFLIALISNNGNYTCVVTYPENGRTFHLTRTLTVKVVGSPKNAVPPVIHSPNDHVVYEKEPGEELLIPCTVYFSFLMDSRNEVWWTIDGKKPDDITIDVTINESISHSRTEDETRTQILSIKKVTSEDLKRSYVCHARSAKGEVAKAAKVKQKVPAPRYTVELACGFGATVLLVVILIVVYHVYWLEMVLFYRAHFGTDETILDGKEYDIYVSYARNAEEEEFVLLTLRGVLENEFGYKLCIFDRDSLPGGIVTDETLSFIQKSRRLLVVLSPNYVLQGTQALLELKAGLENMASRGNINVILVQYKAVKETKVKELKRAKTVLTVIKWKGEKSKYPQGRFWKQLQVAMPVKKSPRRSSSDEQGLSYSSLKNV

B1: IAPB55 (antibody, human IgG4 S228P, kappa, F234A L235A, V domains shown)
VH: QLQLQESGPGLVKPSETLSLTCTVSGVSISSSTYYWGWLRQPPGMGLEWTGSIYFTGNTYYNPSLKSRVTISVDTSRNQFSLKLSSVTAADTAVYYCGSLFGDYGYFDYWGQGTLVTVSS
VL: EIVMTQSPATLSVSPGERATLSCRASQFISSNLAWYQQKPGQAPRLLIYGASTRATGIPARFSGSGSGTDFTLTISSLQSEDFAVYYCQQYNNWPFTFGPGTKVDIKR
notes: IgG4-PAA; whole chains
B2: IAPB61 (antibody, human IgG4 S228P, kappa, F234A L235A, V domains shown)
VH: QLQLQESGPGLVKPSETLSLTCTVSGVSISSSTYYWGWLRQPPGMGLEWTGSIYFTGNTYYNPSLKSRVTISVDTSRNQFSLKLSSVTAADTAVYYCGSLFGDYGYFDYWGQGTLVTVSS
VL: EIVMTQSPATLSVPPGERATLSCRASQFISSNLAWYQQKPGQAPRLLIYGASTRATGIPARFSGSGSGTDFTLTISSLQSEDFAVYYCQQYNNWPSTFGPGTKVDIKR
notes: IgG4-PAA; whole chains
B3: IC3B3 (bispecific antibody, human IgG4 S228P, kappa, lambda, F234A L235A)
heavy 1: EVQLVESGGGLVQPGGSLKLSCAASGFTFNTYAMNWVRQASGKGLEWVGRIRSKYNAYATYYAASVKGRFTISRDDSKNTAYLQMNSLKTEDTAVYYCTRHGNFGNSYVSWFAYWGQGTLVTVSSASTKGPSVFPLAPCSRSTSESTAALGCLVKDYFPEPVTVSWNSGALTSGVHTFPAVLQSSGLYSLSSVVTVPSSSLGTKTYTCNVDHKPSNTKVDKRVESKYGPPCPPCPAPEAAGGPSVFLFPPKPKDTLMISRTPEVTCVVVDVSQEDPEVQFNWYVDGVEVHNAKTKPREEQFNSTYRVVSVLTVLHQDWLNGKEYKCKVSNKGLPSSIEKTISKAKGQPREPQVYTLPPSQEEMTKNQVSLTCLVKGFYPSDIAVEWESNGQPENNYKTTPPVLDSDGSFLLYSKLTVDKSRWQEGNVFSCSVMHEALHNHYTQKSLSLSLGK
light 1: QAVVTQEPSLTVSPGGTVTLTCRSSTGAVTTSNYANWVQQKPGQAPRGLIGGTNKRAPGTPARFSGSLLGGKAALTLSGAQPEDEAEYYCALWYSNLWVFGGGTKLTVLGQPKAAPSVTLFPPSSEELQANKATLVCLISDFYPGAVTVAWKADSSPVKAGVETTTPSKQSNNKYAASSYLSLTPEQWKSHRSYSCQVTHEGSTVEKTVAPTECS
heavy 2: not shown
light 2: DIQLTQSPSFLSASVGDRVTITCRASQGISSYLAWYQQKPGKAPKLLIYAASTLQSGVPSRFSGSGSGTEFTLTISSLQPEDFATYYCQQVNSYPLTFGGGTKVEIKRTVAAPSVFIFPPSDEQLKSGTASVVCLLNNFYPREAKVQWKVDNALQSGNSQESVTEQDSKDSTYSLSSTLTLSKADYEKHKVYACEVTHQGLSSPVTKSFNRGEC
notes: IgG4-PAA, Fab arm exchange; also called IAPB57 x CD3B220
B4: IC3B15 (bispecific antibody, human IgG4 S228P, kappa, lambda, F234A L235A)
heavy 1: EVQLVESGGGLVQPGGSLKLSCAASGFTFNTYAMNWVRQASGKGLEWVGRIRSKYNAYATYYAASVKGRFTISRDDSKNTAYLQMNSLKTEDTAVYYCTRHGNFGNSYVSWFAYWGQGTLVTVSSASTKGPSVFPLAPCSRSTSESTAALGCLVKDYFPEPVTVSWNSGALTSGVHTFPAVLQSSGLYSLSSVVTVPSSSLGTKTYTCNVDHKPSNTKVDKRVESKYGPPCPPCPAPEAAGGPSVFLFPPKPKDTLMISRTPEVTCVVVDVSQEDPEVQFNWYVDGVEVHNAKTKPREEQFNSTYRVVSVLTVLHQDWLNGKEYKCKVSNKGLPSSIEKTISKAKGQPREPQVYTLPPSQEEMTKNQVSLTCLVKGFYPSDIAVEWESNGQPENNYKTTPPVLDSDGSFLLYSKLTVDKSRWQEGNVFSCSVMHEALHNHYTQKSLSLSLGK
light 1: QAVVTQEPSLTVSPGGTVTLTCRSSTGAVTTSNYANWVQQKPGQAPRGLIGGTNKRAPGTPARFSGSLLGGKAALTLSGAQPEDEAEYYCALWYSNLWVFGGGTKLTVLGQPKAAPSVTLFPPSSEELQANKATLVCLISDFYPGAVTVAWKADSSPVKAGVETTTPSKQSNNKYAASSYLSLTPEQWKSHRSYSCQVTHEGSTVEKTVAPTECS
heavy 2: not shown
light 2: not shown
notes: IgG4-PAA, Fab arm exchange; also called IAPB65 x CD3B220
B5: IC3B6 (bispecific antibody, human IgG4 S228P, kappa, lambda, F234A L235A)
heavy 1: EVQLVESGGGLVQPGGSLKLSCAASGFTFNTYAMNWVRQASGKGLEWVGRIRSKYNAYATYYAASVKGRFTISRDDSKNTAYLQMNSLKTEDTAVYYCTRHGNFGNSYVSWFAYWGQGTLVTVSSASTKGPSVFPLAPCSRSTSESTAALGCLVKDYFPEPVTVSWNSGALTSGVHTFPAVLQSSGLYSLSSVVTVPSSSLGTKTYTCNVDHKPSNTKVDKRVESKYGPPCPPCPAPEAAGGPSVFLFPPKPKDTLMISRTPEVTCVVVDVSQEDPEVQFNWYVDGVEVHNAKTKPREEQFNSTYRVVSVLTVLHQDWLNGKEYKCKVSNKGLPSSIEKTISKAKGQPREPQVYTLPPSQEEMTKNQVSLTCLVKGFYPSDIAVEWESNGQPENNYKTTPPVLDSDGSFLLYSKLTVDKSRWQEGNVFSCSVMHEALHNHYTQKSLSLSLGK
light 1: QAVVTQEPSLTVSPGGTVTLTCRSSTGAVTTSNYANWVQQKPGQAPRGLIGGTNKRAPGTPARFSGSLLGGKAALTLSGAQPEDEAEYYCALWYSNLWVFGGGTKLTVLGQPKAAPSVTLFPPSSEELQANKATLVCLISDFYPGAVTVAWKADSSPVKAGVETTTPSKQSNNKYAASSYLSLTPEQWKSHRSYSCQVTHEGSTVEKTVAPTECS
heavy 2: not shown
light 2: not shown
notes: IgG4-PAA, Fab arm exchange; also called IAPB3 x CD3B220

Legend:
[1] = target: T1, recombinant human IL1RAP ECD; experiment: SPR, summary
[2] = target: T2, recombinant cyno IL1RAP ECD; experiment: recombinant protein
[3] = target: T3, cyno IL1RAP ECD displayed on HEK-293F …; experiment: HEK-293F cells (MSD)
[4] = target: T1, recombinant human IL1RAP ECD; experiment: SPR
[5] = target: T2, recombinant cyno IL1RAP ECD; experiment: SPR
[6] = target: T1, recombinant human IL1RAP ECD; experiment: SPR; remark: listed apart in the source
[7] = target: T2, recombinant cyno IL1RAP ECD; experiment: SPR; remark: listed apart in the source
[8] = target: T1, recombinant human IL1RAP ECD; experiment: SPR, summary; remark: listed apart in the source
[9] = target: T2, recombinant cyno IL1RAP ECD; experiment: SPR, summary
[10] = target: T4, human IL1RAP on cells (endogenous); experiment: cell-based or functional assay
[11] = target: T1, recombinant human IL1RAP ECD; experiment: SPR; human KD over cyno KD

Row | Binder | Kd [1] [nM] | binding result [2] | binding result [3] | Kd [4] [nM] | koff [4] [s⁻¹] | kon [4] [M⁻¹ s⁻¹] | Kd [5] [nM] | koff [5] [s⁻¹] | kon [5] [M⁻¹ s⁻¹] | Kd [6] [nM] | Kd [7] [nM] | Kd [8] [nM] | Kd [9] [nM] | EC50, T-cell mediated cytotoxicity [10] [nM] | Hu/Cyno KD Ratio [11]
1 | B1 | 1.64 | binds | binds | – | – | – | – | – | – | – | – | – | – | – | –
2 | B2 | 17.5 | binds | binds | – | – | – | – | – | – | – | – | – | – | – | –
3 | B3 | – | – | – | 0.034 | 2.98e-05 | 875000 | 0.0861 | 8.2e-05 | 952000 | 0.034 | 0.0861 | 0.034 | 0.086 | 0.131 | 0.4
4 | B4 | – | – | – | 11.5 | 0.00395 | 343000 | 9.08 | 0.00344 | 379000 | 11.5 | 9.08 | 11.5 | 9.08 | 0.94 | 1.3
5 | B5 | – | – | – | 2.29 | 0.000381 | 167000 | 2.99 | 0.00054 | 180000 | 2.29 | 2.99 | 2.29 | 2.99 | 0.49 | 0.8
